The target in experiment [1] is human PAC1 receptor extracellular domain (ECD) (human) (UniProt P41586). The experiment can be described thus: yeast-displayed Fab, FACS, 10 nM PAC1 receptor ECD.
Experiment [2] addresses human CGRP receptor extracellular domain (ECD) (human) (UniProt Q16602). The experiment can be described thus: yeast-displayed Fab, FACS, 10 nM human CGRP receptor ECD.
Experiment [3] has the same target. Put plainly: yeast-displayed Fab, FACS, 1 nM human CGRP receptor ECD.

Chain of human PAC1 receptor extracellular domain (ECD) (human) (P41586 24-153): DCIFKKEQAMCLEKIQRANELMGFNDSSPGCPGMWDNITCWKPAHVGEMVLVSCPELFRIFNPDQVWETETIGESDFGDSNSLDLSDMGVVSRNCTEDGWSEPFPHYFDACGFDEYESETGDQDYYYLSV
Chain of human CGRP receptor extracellular domain (ECD) (human) (Q16602 23-138 limits assumed, chain 1 of 2): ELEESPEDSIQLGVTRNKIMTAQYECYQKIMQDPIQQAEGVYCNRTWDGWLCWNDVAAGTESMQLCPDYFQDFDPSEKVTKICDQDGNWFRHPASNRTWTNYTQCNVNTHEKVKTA
Chain of human CGRP receptor extracellular domain (ECD) (human) (chain, as listed by the source limits assumed, chain 2 of 2): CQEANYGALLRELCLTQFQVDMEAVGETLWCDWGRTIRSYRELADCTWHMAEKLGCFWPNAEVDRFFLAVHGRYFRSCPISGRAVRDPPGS

B1: anti-CGRP receptor variant 05, yeast-displayed Fab (Fab, V domains shown)
VH: QVQLVESGGGVVQPGRSLRLSCAASGFTFSSFGMHWVRQAPGKGLEWVAVISFDGSIKYSVDSVKGRFTISRDNSKNTLFLQMNSLRAEDTAVYYCARDRLNYYESSGYYHYKYYGMAVWGQGTTVTVSS
VL: QSVLTQPPSVSAAPGQKVTISCSGSFSNIGRSTVSWYQQLPGTAPKLLIYDNRWRAGGIPDRFSGSKSGTSATLGITGLQTGDEADYYCGTWDYQWKAVVFGGGTKLTVLG
Turning to B1, in experiment [1], the Mutant vs. 4E4.2 Parent B/D Ratio is 1.8 fold and the Normalized Binding Signal/Display Signal (B/D) was found to be 0.2.

B2: anti-CGRP receptor variant 12, yeast-displayed Fab (Fab, V domains shown)
VH: QVQLVESGGGVVQPGRSLRLSCAASGFTFSSFGMHWVRQAPGKGLEWVAVISFDGSIKYSVDSVKGRFTISRDNSKNTLFLQMNSLRAEDTAVYYCARDRLNYYESSGYYHYKYYGMAVWGQGTTVTVSS
VL: QSVLTQPPSVSAAPGQKVTISCSGSRSNIGRYSVSWYQQLPGTAPKLLIYDNRYRAQGIPDRFSGSKSGTSATLGITGLQTGDEADYYCGTWDWATTSVVFGGGTKLTVLG
With B2, in experiment [1], the Mutant vs. 4E4.2 Parent B/D Ratio was 1.8 fold and the Normalized Binding Signal/Display Signal (B/D) is 0.19.

B3: 4E4.2 parental Fab, yeast-displayed (Fab, V domains shown)
VH: QVQLVESGGGVVQPGRSLRLSCAASGFTFSSFGMHWVRQAPGKGLEWVAVISFDGSIKYSVDSVKGRFTISRDNSKNTLFLQMNSLRAEDTAVYYCARDRLNYYESSGYYHYKYYGMAVWGQGTTVTVSS
VL: QSVLTQPPSVSAAPGQKVTISCSGSSSNIGNNYVSWYQQLPGTAPKLLIYDNNKRPSGIPDRFSGSKSGTSATLGITGLQTGDEADYYCGTWDSRLSAVVFGGGTKLTVLG
In the case of B3, the Mutant vs. 4E4.2 Parent B/D Ratio in experiment [2], in experiment [3] and in experiment [1] was 1 fold each time. Also, the figures for the Normalized Binding Signal/Display Signal (B/D) in experiment [2], in experiment [3] and in experiment [1] were 0.15, 0.12 and 0.11, respectively.
